Experiment [1] addresses T1, human GLP-1 receptor (human, UniProt P43220 24-463).
T1 construct: whole, on cells; Used as purified plasma membranes of the stably transfected BHK cell line, not as intact cells; also called hGLP-1
Description: SPA, displacement of 125I-GLP-1(7-36)NH2 from hGLP-1R BHK membranes, high HSA (2.0%). How it is done:
(§1) A shift in the binding affinity, $IC50$, is an indication that the peptide in question binds to albumin, and thereby a prediction of a potential protracted pharmacokinetic profile of the peptide in question in animal models.
(§2) 50 ul (micro liter) HSA ("high albumin" experiment containing 2% HSA), or buffer ("low albumin" experiment containing 0.001% HSA), was added to Optiplate, and 25 ul of test compounds were added. 5-10 ug membrane protein/sample was added (50 ul) corresponding to 0.1-0.2 mg protein/ml (to be preferably optimised for each membrane preparation). SPA-particles (Wheatgerm agglutinin SPA beads, Perkin Elmer, #RPNQ0001) were added in an amount of 0.5 mg/well (50 ul). […] The plates were sealed with PlateSealer and incubated for 120 minutes at 30° C. while shaking. The plates were centrifuged (1500 rpm, 10 min) and counted in Topcounter.
In general terms: In a radioligand displacement assay an active substance lowers the binding of a labelled ligand.

Experiment [2] addresses T1, human GLP-1 receptor. Description: cell-based or functional assay.
Experiment [3] concerns the target T1, human GLP-1 receptor. Description: SPA displacement assay; IC50 at 2.0% HSA over IC50 at 0.001% HSA. How it is done:
as §1, §2

Experiment [4] concerns the target T1, human GLP-1 receptor. As to the kind of experiment: SPA, displacement of 125I-GLP-1(7-36)NH2 from hGLP-1R BHK membranes, low HSA (0.001%). How it is done: as §1, §2

The values below come from patent US9266940 (Novo Nordisk, dated 2016).

Numbered stars: 1 amine (or outer) side, 2 acyl side, 3 side chain; on linkers, the order of the positions; unused ones are H or OH. Square brackets hold non-standard residues; d marks the D form. Side chains are listed from the residue outwards. Ends that are not written are not given here. * marks the point of attachment. Decanoyl(10-(4-HOOC-PhO)) = O=C(O)c1ccc(OCCCCCCCCCC(=O)*)cc1; d(γGlu) = O=C(O)[C@@H](CCC(=O)[*:2])N[*:1]; γGlu = O=C(O)[C@H](CCC(=O)[*:2])N[*:1]; C14 diacid = O=C(O)CCCCCCCCCCCCC(=O)*; AEEA = NCCOCCOCC(=O)O; Aib = CC(C)(N)C(=O)O Where only a bound is given, the exact number is not on record here.

For the molecule HAEGTFTSDVSSYLEGQAARK([AEEA-AEEA-γGlu-Decanoyl(10-(4-HOOC-PhO))])FIEWLVRGK([AEEA-AEEA-γGlu-Decanoyl(10-(4-HOOC-PhO))])GE, the IC50 (as a rule, the concentration that gives 50% inhibition) turned out to be 123 nM with human GLP-1 receptor [1] and 0.5 nM with human GLP-1 receptor [4]. Also, the “EC50/pM (in vitro potency, cAMP formation, AlphaScreen)” value (shortened to “EC50/pM”) in the experiment with human GLP-1 receptor [2] amounted to 96 pM. For the same molecule, in the experiment with human GLP-1 receptor [3], the “Ratio [(IC50/nM) high HSA]/[(IC50/nM) low HSA]” value (“Ratio” below) came to 246.

With HAEGTFTSDVSSYLEGQAAHK([AEEA-AEEA-γGlu-Decanoyl(10-(4-HOOC-PhO))])FIEWLVRGK([AEEA-AEEA-γGlu-Decanoyl(10-(4-HOOC-PhO))])GE (also called 10), the values for the IC50 with human GLP-1 receptor [1] and with human GLP-1 receptor [4] were 452 nM and 6.49 nM, respectively. Moreover, the “EC50/pM” value in the experiment with human GLP-1 receptor [2] was 214 pM. The “Ratio” value in the experiment with human GLP-1 receptor [3] amounted to 70.

As for HAEGTFTSDVSSYLEEQAAHK([AEEA-AEEA-γGlu-Decanoyl(10-(4-HOOC-PhO))])FIEWLVRGK([AEEA-AEEA-γGlu-Decanoyl(10-(4-HOOC-PhO))])GE (also called 21), the results for the IC50 with human GLP-1 receptor [1] and in the experiment with human GLP-1 receptor [4] were 256 nM and 1.57 nM, respectively. The “EC50/pM” value with human GLP-1 receptor [2] was determined as 52 pM. Further, the “Ratio” value in the experiment with human GLP-1 receptor [3] was found to be 163.

For HAEGTFTSDVSSYLEGQAVRK([AEEA-AEEA-γGlu-Decanoyl(10-(4-HOOC-PhO))])FIEWLVRGK([AEEA-AEEA-γGlu-Decanoyl(10-(4-HOOC-PhO))])GQ (also called 12), the IC50 with human GLP-1 receptor [1] came out at 72 nM; with human GLP-1 receptor [4], 0.16 nM. The “EC50/pM” value with human GLP-1 receptor [2] is 41 pM. Besides, the “Ratio” value with human GLP-1 receptor [3] worked out at 453.

For the molecule HAEGTFTSDVSSYLEGQAVRK([AEEA-AEEA-γGlu-Decanoyl(10-(4-HOOC-PhO))])FIEWLVQGK([AEEA-AEEA-γGlu-Decanoyl(10-(4-HOOC-PhO))])GE (also called 13), the IC50 in the experiment with human GLP-1 receptor [1] worked out at 201 nM; in the experiment with human GLP-1 receptor [4], 0.25 nM. Also, the “EC50/pM” value in the experiment with human GLP-1 receptor [2] came to 79 pM. In addition, the “Ratio” value with human GLP-1 receptor [3] was 804.

On to H[Aib]EGTFTSDVSSYLEK([AEEA-AEEA-γGlu-C14 diacid])QAVRK([AEEA-AEEA-γGlu-C14 diacid])FIAHLVRGRG, for which the IC50 was found to be 21 nM with human GLP-1 receptor [1] and 0.12 nM with human GLP-1 receptor [4]. In addition, the “EC50/pM” value with human GLP-1 receptor [2] came out at 9 pM. In addition, the “Ratio” value with human GLP-1 receptor [3] came out at 174.

With H[Aib]EGTFTSDVSSYLEGQAVRK([AEEA-AEEA-γGlu-C14 diacid])FIAHLVQGRK([AEEA-AEEA-γGlu-C14 diacid]) (also called 15), the IC50 in the experiment with human GLP-1 receptor [1] was determined as 29 nM; with human GLP-1 receptor [4], 0.19 nM. For the same molecule, the “EC50/pM” value with human GLP-1 receptor [2] was found to be 5 pM. Moreover, the “Ratio” value with human GLP-1 receptor [3] is 155.

As for H[Aib]EGTFTSDVSSYLEK([AEEA-AEEA-γGlu-C14 diacid])QAARK([AEEA-AEEA-γGlu-C14 diacid])FIAHLVG (also called 19), the IC50 was 143 nM with human GLP-1 receptor [1] and 2.38 nM in the experiment with human GLP-1 receptor [4]. Besides, in the experiment with human GLP-1 receptor [2], the “EC50/pM” value was 52 pM. Moreover, in the experiment with human GLP-1 receptor [3], the “Ratio” value was 60.

In the case of HAEGTFTSDVSSYLEGQAVRK([γGlu-AEEA-AEEA-d(γGlu)-Decanoyl(10-(4-HOOC-PhO))])FIAWLVQGK([γGlu-AEEA-AEEA-d(γGlu)-Decanoyl(10-(4-HOOC-PhO))])G (also called 26), the IC50 with human GLP-1 receptor [1] worked out at 54 nM; with human GLP-1 receptor [4], 0.38 nM. Moreover, the “EC50/pM” value with human GLP-1 receptor [2] turned out to be 200 pM. Also, the “Ratio” value with human GLP-1 receptor [3] turned out to be 143.

On to HAEGTFTSDVSSYLEEQK([AEEA-AEEA-γGlu-Decanoyl(10-(4-HOOC-PhO))])ARK([AEEA-AEEA-γGlu-Decanoyl(10-(4-HOOC-PhO))])FIAHLVG (also called 25), for which the IC50 stood at 39 nM with human GLP-1 receptor [1] and 10.9 nM in the experiment with human GLP-1 receptor [4]. Also, in the experiment with human GLP-1 receptor [2], the “EC50/pM” value is 380 pM. Further, the “Ratio” value with human GLP-1 receptor [3] was found to be 3.5.

Consider H[Aib]EGTK([AEEA-AEEA-γGlu-C14 diacid])TSDVSSYLEEQAARK([AEEA-AEEA-γGlu-C14 diacid])FIAHLVQGRG (also called 18), for which the IC50 stood at 789 nM with human GLP-1 receptor [1] and 373 nM with human GLP-1 receptor [4]. The “EC50/pM” value in the experiment with human GLP-1 receptor [2] came out at 3020 pM. The “Ratio” value in the experiment with human GLP-1 receptor [3] was 2.1.

Consider HAEGTFTSDVSSYLEEQK([γGlu-AEEA-AEEA-C14 diacid])ARK([γGlu-AEEA-AEEA-C14 diacid])FIAHLVG (also called 22), for which the IC50 with human GLP-1 receptor [1] turned out to be 812 nM; in the experiment with human GLP-1 receptor [4], 9.31 nM. Also, the “EC50/pM” value in the experiment with human GLP-1 receptor [2] is 1180 pM. For the same molecule, the “Ratio” value in the experiment with human GLP-1 receptor [3] stood at 87.

Regarding HAEGTFTSDVSSYLEEQK([γGlu-AEEA-AEEA-C14 diacid])VRK([γGlu-AEEA-AEEA-C14 diacid])FIAWLVG (also called 30), the IC50 with human GLP-1 receptor [1] was greater than 1000 nM; in the experiment with human GLP-1 receptor [4], 7.44 nM. Also, the “EC50/pM” value in the experiment with human GLP-1 receptor [2] was determined as 3000 pM. In addition, in the experiment with human GLP-1 receptor [3], the “Ratio” value was 134.

As to HAEGTFTSDVSSYLEEQK([AEEA-AEEA-γGlu-C14 diacid])VRK([AEEA-AEEA-γGlu-C14 diacid])FIAWLVG (also called 27), the IC50 was greater than 1000 nM in the experiment with human GLP-1 receptor [1] and 10.3 nM with human GLP-1 receptor [4]. For the same molecule, in the experiment with human GLP-1 receptor [2], the “EC50/pM” value was determined as 835 pM. Also, the “Ratio” value with human GLP-1 receptor [3] turned out to be 97.

As for HAEGTFTSDVSSYLEK([γGlu-AEEA-AEEA-C14 diacid])QAARK([γGlu-AEEA-AEEA-C14 diacid])FIAHLVG (also called 14), the IC50 in the experiment with human GLP-1 receptor [1] is 443 nM; in the experiment with human GLP-1 receptor [4] it was 1.45 nM. Besides, the “EC50/pM” value with human GLP-1 receptor [2] turned out to be 42 pM. Also, the “Ratio” value with human GLP-1 receptor [3] stood at 306.

With HAEGTFTSDVSSYLEEQAARK([AEEA-AEEA-γGlu-Decanoyl(10-(4-HOOC-PhO))])FIEWLVRGK([AEEA-AEEA-γGlu-Decanoyl(10-(4-HOOC-PhO))])GEG, the values for the IC50 with human GLP-1 receptor [1] and in the experiment with human GLP-1 receptor [4] were 320 nM and 0.39 nM, respectively. Further, the “EC50/pM” value with human GLP-1 receptor [2] came to 43 pM. Besides, in the experiment with human GLP-1 receptor [3], the “Ratio” value worked out at 821.
